Laboratory results as given in US20260234276A1 (DOMAIN THERAPEUTICS, published 2026).
“And” between values parts separate entries of the source, which are not always exact repeats. Equal entries are not always repeated.

Legend:
human CCR8 [1] = target: T1, human CCR8 (human, UniProt P51685 1-355); test: cell-based or functional assay
pm5 = pm5 (human, sulfated tyrosines at Y15 and Y17); test: ELISA on coated peptide [cont.]
Procedure: (§1) The specific binding properties of antibodies were evaluated by ELISA with coated CCR8 related peptides (500 ng/mL) in carbonate/bicarbonate buffer. Different peptides were used as described in Table 1 (see Example 1). Each anti-CCR8 mAb was tested at 1 μg/mL then diluted at 1/10. After an incubation at room temperature during 90 min, unbound mAbs were removed by washings. […] After washings, 3,3′,5,5′-tetramethylbenzidine (TMB) (Interchim, Montlugon, France) was added for 15 min. Then the optical density (OD) was determined by using a multiplate reader (Tecan, Lyon, France) and correlated with mAb reactivity on the panel of coated peptides.

pm6 = pm6 (human, sulfated tyrosines at Y16 and Y17); test: ELISA on coated peptide [cont.]
Procedure: as §1

pm8 = pm8 (human, sulfated tyrosines at Y15, Y16 and Y17); test: ELISA on coated peptide [cont.]
Procedure: as §1

pm3 = pm3 (human, sulfated tyrosine at Y17); test: ELISA on coated peptide [cont.]
Procedure: as §1

human CCR8 [2] = target: T1, human CCR8; test: flow cytometry, hCCR8 transfected CHOK1 cells
Procedure: Briefly, 1·10⁵ cells per well in a 96 well plate were incubated with a dilution of unconjugated anti-CCR8 mAb at 10 μg/mL then diluted at 1/3.33, 4 dilution points (during 30 min at 4° C.). […] To determine EC50 value, 8 concentrations of anti-CCR8 mAb were tested. Unbound antibodies were washed away with PBS (Invitrogen by Thermofisher Scientific, Illkirch-Graffenstaden, France) supplemented by 2% Fetal Bovine Serum (Invitrogen by Thermofisher Scientific, Illkirch-Graffenstaden, France) and 2 mM EDTA (Invitrogen by Thermofisher Scientific, Illkirch-Graffenstaden, France). Subsequently, cells are centrifuged (5 min at 400 g) and bound antibody is detected with F(ab′)₂-Goat anti-Mouse IgG (H+L) Cross-Adsorbed Secondary Antibody, Alexa Fluor 488 (dilution 1/500) (Invitrogen by Thermofisher Scientific, Illkirch-Graffenstaden, France) or with F(ab′)₂-Goat anti-Human IgG Fc Secondary Antibody, PE (Invitrogen by Thermofisher Scientific, Illkirch-Graffenstaden, France) (dilution 1/1000) at 4° C. for 30 min. Detection reagent is washed away and cells are centrifuged (5 min at 400 g) and resuspended in 30 μL PBS. Bound detection antibody is quantified on a MacsQuant16 (Miltenyi, Gladbach, Germany) (B1 or B2 channel, 5000 events per acquisition).

human CCR8 [3] = target: T1, human CCR8; test: cell-based or functional assay; remark: listed apart in the source

Chain of pm5 (human, sulfated tyrosines at Y15 and Y17) (peptide, as listed by the source): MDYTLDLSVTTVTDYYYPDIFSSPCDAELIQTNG
Chain of pm3 (human, sulfated tyrosine at Y17) (peptide, as listed by the source): as above
Chain of pm6 (human, sulfated tyrosines at Y16 and Y17) (peptide, as listed by the source): as above
Chain of pm8 (human, sulfated tyrosines at Y15, Y16 and Y17) (peptide, as listed by the source): as above

Row | Binder | IC50 (Gi2 BRET, pH 6.5) (human CCR8 [1]) | IC50 (Gi2 BRET, pH 7.4) (human CCR8 [1]) | binding result (pm5) | binding result (pm6) | binding result (pm8) | binding result (pm3) | % positive cells (human CCR8 [2]) [%] | MFI fold change to isotype ctrl (human CCR8 [2]) [fold] | hCCL1 (100 nM) residual response, Protocol #2, mAb 0.08 µg/mL (human CCR8 [3]) [%] | hCCL1 (100 nM) residual response, Protocol #2, mAb 0.4 µg/mL (human CCR8 [3]) [%] | hCCL1 (100 nM) residual response, Protocol #2, mAb 10 µg/mL (human CCR8 [3]) [%] | hCCL1 (100 nM) residual response, Protocol #3, mAb 0.05 µg/mL (human CCR8 [3]) [%] | hCCL1 (100 nM) residual response, Protocol #3, mAb 0.5 µg/mL (human CCR8 [3]) [%] | hCCL1 (100 nM) residual response, Protocol #3, mAb 5 µg/mL (human CCR8 [3]) [%]
1 | 3-34 (antibody, V domains shown) VH: EVQLQQSGPELVKPGASVKISCKTSGYTFTEYTIHWVKQSHGKSLEWVGGINPDNGNTRYDQKFKGKATLTIDKSSSTAYMELRSLTSEDSAVYYCARVARSSGSGPYAMDYWGQGTSVTVSS VL: DVVMTQTPLSLPVSLGDQASISCRCTQSLLHTNGDTYLHWYLQKPGQSPKLLIYKVSNRFSGVPDRFSGSGSGTDFTLKISRVEAEDLGVYFCSQSTHVPYTFGGGTKLEIK | 0.207 µg/ml and 1.38 nM | 0.281 µg/ml and 1.88 nM | binds | binds | binds | binds | 73.7 | 10.3 | – | – | – | – | – | –
2 | 3-44 (antibody, V domains shown) VH: QVQLKESGPGLVAPSQSLSITCTVSGFSLTDYGVSWIRQPPGKGPEWLGVIWGGGNTYYNSVLKSRLSISNDNSKSQVFLRMNSLQTADTAIYYCARPRRDYYALDYWGQGTSVTVAS VL: DVVMTQTPLSLPVSLGDQASISCRSSQSLVYTNGNTFLHWYLQKPGQSPKLLIYKVSNRFSGVPDRFSGSGSGTDFTLKISRVEAEDLGVYFCSQSTHVPPTFGGGTKLEIK | 0.578 µg/ml and 3.85 nM | 0.812 µg/ml and 5.41 nM | binds | binds | binds | binds | 78.9 | 6.36 | – | – | – | – | – | –
3 | 3-42 (antibody, V domains shown) VH: QVQLKESGPGLVAPSQSLSITCTVSGFSLTDYRVSWIRQPPGKGLEWLGVIWGGRSTYYNSALKSRLSISKDNSKSQVFLKMNSLQTDDTAMYYCAKQGDGYYALDYWGQGTSVTVSS VL: DVVMTQTPLSLPVSLGDQASISCRSSQSLVHSYGNTYLHWYLQKPGQSPKLLIYKVSNRFSGVPDRFHGSGSGTDFTLKISRVEAEDLGVYFCSQSTHVPPTFGGGTKLEIK | 0.516 µg/ml and 3.44 nM | 0.82 µg/ml and 5.47 nM | binds | binds | binds | binds | 57.7 | 3.84 | – | – | – | – | – | –
4 | 3-51 (antibody, V domains shown) VH: QVQLQQSGAELVRPGVSVKISCKGSGYTFTDYAIHWVKQRHAKSLEWIGVISTYYGDTRYNQKFKGKATMTVDKSSNTAYMELARLTSEDSAIYYCARGGLRQDYAMNYWGQGTSVTVSS VL: not shown | > 67 nM and > 10 µg/ml | > 10 µg/ml and > 67 nM | binds | – | binds | – | 73.2 | 6.91 | – | – | – | – | – | –
5 | 3-40 (antibody, V domains shown) VH: QVQLKESGPGLVAPSQSLSITCTVSGLSMNDYVVTWIRQPPGKGLEWLGVIWGGGNTYYNSDLKSRLSITKDNSKSQVFFKMSSLQTDDTAVYYCARRHRDYALDYWGQGISVTVSS VL: ENVLTQSPAIMSASPGEKVTMTCRASSSVSSSYLHWYQQKSGASPKLWIYSTSNLASGVPARFSGSGSGTSYSLTISSVEAEDAATYYCQQYSGYPYTFGGGTKLEIK | – | – | binds | binds | binds | binds | 69.9 | 5.81 | – | – | – | – | – | –
6 | 3-23 (antibody, V domains shown) VH: QVQLVETGGGLVRPGNSLKLSCVISGFTFSNYRIHWLRQPPGKRLEWIAVITVKSDNYEANYAESVKGRFTISRDDSKSSVYLQMNRLREEDTATYYCSRPDGFSPFVYWGQGTLVTVSA VL: DIKMTQSPSSMYASLGERVTITCKASQDINNYLSWFQQKPGKSPKTLIYRADRLVDGVPSRFSGSGSGQDYSLTISSLDYEDMGIYYCLQYAEFPPTFGAGTKLELK | > 4.5 µg/ml and > 30 nM | > 4.5 µg/ml and > 30 nM | binds | binds | binds | binds | 80 | 12.7 | – | – | – | – | – | –
7 | 3-31 (antibody, V domains shown) VH: DVQLQESGPGLVKPSQSLSLTCTVTGYSITSNYAWNWIRQFPGNKLEWMVYITYSGSTRFNPSLKSRISITRDTSKNQFFLQLNSVTTEDTATYYCARGENLFAYWGQGTLVIVSA VL: DVVMTQTPLSLPVSLGDQASISCRSSQSLVHNNGNTYLHWYLQKPGQSPKLLIYKVSNRFSGVPDRFSGSGSGTDFTLKINRLEAEDLGVYFCSQSTYVPLTFGAGTKLELK | 0.163 µg/ml and 1.09 nM | 0.237 µg/ml and 1.58 nM | binds | binds | binds | binds | 65.6 | 5.35 | – | – | – | – | – | –
8 | 3-52 (antibody, V domains shown) VH: QVQLQQPGSELVRPGASVKLSCKASGYTFTSYWMHWVKQRPGQGLEWIGNIWPGSASTNYDEKFKNKATLTVDTSSSTAYMQLSSLTSEDSAVYYCIRGGKGAMDYWSQGTSVTVSS VL: DVVMTQIPLSLPVSLGDQASISCRSSQSLENSYGNTYLNWYLQKPGQSPQLLIYRVSNRFSGVLDRFSGSGSGTDFTLKISRVEAEDLGVYFCLQVTHVPPTFGAGTKLELK | 0.078 µg/ml and 0.523 nM | 0.087 µg/ml and 0.579 nM | – | – | – | – | 81.6 | 9.92 | 99 | 83 | 56 | 116 | 90 | 45
9 | 3-12 (antibody, V domains shown) VH: QVQLQQPGAVLVKPGASVKMSCKASGYTFTSYNMHWLKQTPGQGLEWIGAIAPGKGDTSHNQKFKGKATLTADKSSSTAYMQLSSLTSEDSAVYYCARRNNYEPFVYWGQGTLVTVSA VL: DIVFTQSPASLAVSLGQRATISCRASESVEYYGTSLMQWYQQKPGQPPKLLIYAASNVESGVPARFSGSGSGTDFSLNIHPVEADDIAMYFCQQSRKVPFTFGSGTKLEIK | 0.037 µg/ml and 0.248 nM | 0.088 µg/ml and 0.587 nM | binds | binds | binds | – | 87.8 | 14.9 | – | – | – | – | – | –
10 | 3-47 (antibody, V domains shown) VH: QVQLQQPGAELVKPGASVKMSCKASGYTFTSYNMHWVKQTPGQGLEWIGAISPGNGDTSYNQKFKGKATLTADKSSSTAYMQLSSLTSEDSAVYYCARGKNGNVPMDYWGQGTSVTVSS VL: DIVLTQSPASLAVSLGQRATISCRASESVEYYGTSLMKWYQQKPGQPPKLLIYAASIVESGVPARFSGSGSGTDFSLNIHPVEEDDIAMYFCQQSRKVPWTFGGGTKLEIK | 0.175 µg/ml and 1.16 nM | 0.483 µg/ml and 3.22 nM | binds | binds | binds | binds | 75.8 | 6.81 | – | – | – | – | – | –
